In article PMC7584627:

Target: LuS-N71-SpyTag (Aquifex aeolicus)
Test: SDS-PAGE of the covalent conjugate, band intensities

Q: Which percent of nanoparticle subunit conjugated does the source give for SARS-CoV-2 spike-SpyCatcher here?
A: Its percent of nanoparticle subunit conjugated is 91%.
